In the Human Domainome abundance scans (Beltran et al. 2025):
± gives the uncertainty stated by the source.

B1: Transcription intermediary factor 1-beta, residues 620 to 671; numbered along this chain, Q13263 (parent)
chain: TLDDSATICRVCQKPGDLVMCNQCEFCFHLDCHLPALQDVPGEEWSCSLCHV
B2: Tudor domain-containing protein 3, residues 554 to 611; numbered along this chain, Q9H7E2 (parent)
chain: KMWKPGDECFALYWEDNKFYRAEVEALHSSGMTAVVKFIDYGNYEEVLLSNIKPIQTE

Variants of: B1
Assay: abundance fitness (aPCA) (normalised: wild type 0, dead -1); higher = more abundant; growth selection in yeast, the domain comes from the species named
Conditions: Homo sapiens

Variant	abundance fitness
V19H	0.116 ± 0.3
V19L	-0.171 ± 0.1
V19Q	-0.402 ± 0.27
V19F	-0.311 ± 0.15
V19A	-0.58 ± 0.14
V19E	-0.519 ± 0.17
V19W	0 ± 0.12
L37H	-0.215 ± 0.24
L37P	-0.138 ± 0.14
L37K	-0.421 ± 0.2
L37F	-0.344 ± 0.2
L37Y	-0.27 ± 0.18
T7K	-0.022 ± 0.13
T7H	-0.138 ± 0.14
T7E	0.004 ± 0.13
T7W	-0.429 ± 0.15
P15A	0.005 ± 0.11
P15W	-0.771 ± 0.18
S48H	0.052 ± 0.21
S48C	-0.324 ± 0.2
S48L	-0.409 ± 0.097
S48Q	-0.234 ± 0.18
S48T	-0.217 ± 0.1
F26S	-0.192 ± 0.1
C47K	-0.466 ± 0.11
C47L	-0.864 ± 0.1

Variant	abundance fitness
H33M	-0.205 ± 0.15
H33V	0.033 ± 0.098
H33R	-0.109 ± 0.095
H33Q	0.042 ± 0.15
H33K	-0.218 ± 0.17
W45D	-0.506 ± 0.14
W45C	-0.283 ± 0.11
N22M	-0.337 ± 0.16
N22F	-0.281 ± 0.23
L34G	0.098 ± 0.08
L34E	0.188 ± 0.13
D31V	-0.254 ± 0.093
D31R	-0.324 ± 0.12
D31E	-0.202 ± 0.14
D31K	-0.528 ± 0.2
D17N	-0.256 ± 0.2
D17A	-0.639 ± 0.19
D17C	-0.151 ± 0.16
G42V	-0.107 ± 0.099
G42A	0.014 ± 0.085
G42K	0.095 ± 0.16
G42Y	-0.421 ± 0.21
T1W	-0.8 ± 0.33
T1V	-0.043 ± 0.27
T1E	-0.11 ± 0.45
C50K	-0.1 ± 0.16

Variant	abundance fitness
C50P	0.037 ± 0.15
P35E	-0.447 ± 0.12
P35D	-0.447 ± 0.14
I8Q	0.085 ± 0.15
I8N	-0.045 ± 0.17
I8M	0.056 ± 0.11
I8V	-0.095 ± 0.081
S5C	-0.157 ± 0.23
S5L	-0.596 ± 0.12
S5F	-0.227 ± 0.22
S5M	-0.267 ± 0.11
L18G	-0.642 ± 0.12
F28G	-0.593 ± 0.12
F28R	-0.284 ± 0.093
F28S	-0.424 ± 0.12
F28W	0.093 ± 0.11
F28H	-0.346 ± 0.35
F28M	-0.318 ± 0.14
H51L	-0.063 ± 0.12
H51S	0.109 ± 0.11
H51V	-0.023 ± 0.094
H51M	0.021 ± 0.13
C24I	-1.07 ± 0.36
C24N	-1.19 ± 0.4
C24A	-0.666 ± 0.14
C24V	-1.08 ± 0.17

Variant	abundance fitness
C24W	-1.04 ± 0.19
C24S	-1 ± 0.17
D39S	-0.227 ± 0.12
D39E	0.287 ± 0.16
D39A	-0.175 ± 0.16
E25K	-0.228 ± 0.19
E25C	-0.052 ± 0.16
E25M	-0.286 ± 0.28
E25G	-0.27 ± 0.1
E25L	-0.134 ± 0.1
P41C	-0.242 ± 0.14
P41S	-0.374 ± 0.14
P41H	-0.513 ± 0.18
E44F	-0.412 ± 0.2
E44P	-0.369 ± 0.13
E44S	-0.07 ± 0.11
C21M	-1.24 ± 0.35
C21G	-0.871 ± 0.11
C21L	-0.837 ± 0.13
D4F	-0.19 ± 0.15
D4L	0.135 ± 0.081
D4H	-0.035 ± 0.26
D4P	-0.155 ± 0.12
D4R	0.015 ± 0.072
D4A	-0.141 ± 0.1
A36G	-0.116 ± 0.087

Variant	abundance fitness
A36E	0.034 ± 0.13
A36N	-0.384 ± 0.31
R10D	-0.108 ± 0.17
R10C	-0.363 ± 0.16
R10K	0.206 ± 0.15
R10S	0.161 ± 0.13
R10P	-0.301 ± 0.13
R10V	-0.143 ± 0.098
R10I	-0.866 ± 0.28
V52Y	-0.284 ± 0.39
V52F	-0.18 ± 0.19
V52D	-0.267 ± 0.23
V52C	-0.289 ± 0.31
V52I	-0.354 ± 0.13
E43L	-0.085 ± 0.086
E43N	-0.089 ± 0.37
E43W	-0.2 ± 0.1
E43Y	-0.486 ± 0.22
E43V	-0.165 ± 0.086
L49S	0.303 ± 0.08
L49D	0.277 ± 0.1
L49R	0.219 ± 0.075
L49M	0 ± 0.092
L49F	0.192 ± 0.12
M20I	-0.379 ± 0.2
V40S	-0.121 ± 0.11

Variant	abundance fitness
V40L	-0.221 ± 0.11
V40Q	-0.383 ± 0.21
V40C	-0.401 ± 0.17
G16Q	-0.477 ± 0.23
G16V	-0.827 ± 0.15
A6W	-0.86 ± 0.17
A6C	-0.973 ± 0.21
C9K	-0.802 ± 0.42
C9W	-0.905 ± 0.22
C9R	-1.18 ± 0.2
L30H	-0.194 ± 0.19
L30S	-0.145 ± 0.13
L30W	-0.271 ± 0.12
L30P	-0.139 ± 0.17
L30F	-0.609 ± 0.19
Q13T	-0.085 ± 0.11
Q13L	-0.084 ± 0.079
Q13Y	-0.111 ± 0.12
Q13N	0.128 ± 0.17
H29K	-0.807 ± 0.28
H29E	-0.919 ± 0.23
H29L	-1.01 ± 0.15
H29N	-0.504 ± 0.19
H29I	-1.12 ± 0.27
H29P	-1.34 ± 0.34
V11P	-0.779 ± 0.14

Variant	abundance fitness
V11K	-0.162 ± 0.11
Q23N	-0.014 ± 0.21
Q23L	-0.199 ± 0.1
Q23V	-0.214 ± 0.1
Q23P	-0.93 ± 0.21
C32I	-0.911 ± 0.2
C32M	-0.952 ± 0.16
C32E	-0.871 ± 0.24
C32G	-0.652 ± 0.11
L2Q	0.016 ± 0.14
L2H	-0.678 ± 0.4
L2P	0.179 ± 0.27
Q38E	-0.434 ± 0.16
Q38R	0.023 ± 0.091
Q38N	0.082 ± 0.2
Q38L	-0.227 ± 0.09
Q38K	-0.18 ± 0.17
Q38Y	-0.417 ± 0.17
Q38P	-0.437 ± 0.15
Q38A	-0.02 ± 0.1
D3L	-0.242 ± 0.11
D3V	-0.487 ± 0.1
D3G	-0.411 ± 0.099
D3N	-0.112 ± 0.14

Variants of: B2
Assay: as above
Conditions: Homo sapiens

Variant	abundance fitness
T57H	0.06 ± 0.12
T57W	-0.272 ± 0.096
T57V	0.04 ± 0.063
T57Y	-0.072 ± 0.11
T57I	-0.036 ± 0.11
T57F	-0.123 ± 0.1
T57C	-0.005 ± 0.085
T57G	0.029 ± 0.055
T57N	0.019 ± 0.11
T57D	0.083 ± 0.074
T57R	-0.047 ± 0.059
T57K	-0.047 ± 0.16
T57E	0.114 ± 0.092
T57S	0.021 ± 0.063
T57Q	0.02 ± 0.14
T57A	0.041 ± 0.065
S50F	-0.605 ± 0.093
S50Y	-0.437 ± 0.097
S50V	-0.082 ± 0.063
S50W	-0.585 ± 0.08
S50M	-0.255 ± 0.09
S50H	0.048 ± 0.11
S50P	-0.548 ± 0.082
S50N	-0.217 ± 0.086
S50I	-0.192 ± 0.094
S50Q	-0.115 ± 0.11

Variant	abundance fitness
S50K	0.03 ± 0.08
S50T	0.059 ± 0.086
S50G	-0.155 ± 0.054
S50L	-0.523 ± 0.074
S50R	-0.155 ± 0.056
I55G	-0.351 ± 0.051
I55F	-0.1 ± 0.13
I55D	-0.415 ± 0.1
I55C	-0.041 ± 0.074
I55R	-0.068 ± 0.055
I55Y	-0.132 ± 0.11
I55T	-0.18 ± 0.097
I55M	-0.096 ± 0.095
I55P	-0.084 ± 0.11
I55S	-0.192 ± 0.067
I55V	-0.039 ± 0.063
I55N	-0.265 ± 0.12
I55K	-0.139 ± 0.089
I55W	-0.372 ± 0.078
I55A	-0.028 ± 0.079
I55E	-0.558 ± 0.099
K53F	-0.229 ± 0.088
K53W	-0.242 ± 0.12
K53Y	-0.214 ± 0.087
K53E	-0.261 ± 0.079
K53M	-0.192 ± 0.12

Variant	abundance fitness
K53L	-0.217 ± 0.07
K53P	-0.809 ± 0.15
K53R	0.008 ± 0.06
K53G	-0.711 ± 0.065
K53C	-0.238 ± 0.087
K53A	-0.276 ± 0.062
K53H	-0.213 ± 0.11
K53N	-0.378 ± 0.087
K53Q	-0.12 ± 0.1
K53D	-0.659 ± 0.092
K53V	-0.194 ± 0.057
K53I	-0.145 ± 0.092
K53T	-0.109 ± 0.096
N51E	-0.272 ± 0.069
N51T	-0.529 ± 0.077
N51F	-1.02 ± 0.19
N51W	-0.271 ± 0.077
N51R	-0.485 ± 0.06
N51D	-0.097 ± 0.1
N51V	-0.925 ± 0.083
N51H	0.055 ± 0.084
N51Y	-0.678 ± 0.16
N51K	-0.418 ± 0.076
N51C	-0.205 ± 0.11
N51Q	-0.036 ± 0.09
N51I	-0.837 ± 0.13

Variant	abundance fitness
N51P	-1.02 ± 0.14
N51G	-0.462 ± 0.055
N51L	-0.727 ± 0.071
N51A	-0.308 ± 0.065
N51S	-0.205 ± 0.064
N51M	-0.364 ± 0.075
P54F	-0.701 ± 0.15
P54D	-0.229 ± 0.1
P54W	-0.767 ± 0.085
P54C	-0.429 ± 0.093
P54G	-0.332 ± 0.057
P54N	-0.41 ± 0.13
P54A	-0.162 ± 0.07
P54E	-0.006 ± 0.11
P54R	-0.17 ± 0.054
P54Y	-0.565 ± 0.14
P54L	-0.36 ± 0.065
P54S	-0.158 ± 0.063
P54H	-0.181 ± 0.12
P54I	-0.5 ± 0.12
P54K	-0.138 ± 0.11
P54Q	-0.188 ± 0.097
P54V	-0.298 ± 0.077
P54T	-0.125 ± 0.093
E58V	-0.136 ± 0.084
E58M	-0.175 ± 0.14

Variant	abundance fitness
E58K	-0.024 ± 0.2
E58L	-0.183 ± 0.12
E58I	-0.187 ± 0.23
E58Y	-0.157 ± 0.25
E58Q	-0.252 ± 0.29
E58W	-0.068 ± 0.24
E58R	-0.111 ± 0.12
E58S	0.113 ± 0.11
E58F	-0.314 ± 0.24
E58D	-0.058 ± 0.081
E58A	-0.133 ± 0.085
E58G	-0.042 ± 0.082
E58T	-0.037 ± 0.23
E58N	0.049 ± 0.29
E58H	-0.304 ± 0.12
E58C	-0.062 ± 0.16
I52Y	-0.923 ± 0.16
I52F	-0.906 ± 0.25
I52P	-0.639 ± 0.12
I52Q	-1.01 ± 0.19
I52H	-1.04 ± 0.34
I52L	0.032 ± 0.067
I52T	-0.686 ± 0.14
I52K	-0.974 ± 0.43
I52W	-0.81 ± 0.11
I52D	-0.857 ± 0.13

Variant	abundance fitness
I52M	0.028 ± 0.12
I52R	-0.938 ± 0.079
I52E	-0.911 ± 0.12
I52A	-0.824 ± 0.093
I52S	-0.853 ± 0.089
I52G	-0.895 ± 0.064
I52C	-0.37 ± 0.077
I52V	-0.184 ± 0.063
Q56T	-0.003 ± 0.087
Q56W	-0.189 ± 0.077
Q56E	0.113 ± 0.081
Q56S	-0.054 ± 0.064
Q56I	-0.038 ± 0.092
Q56G	0.031 ± 0.056
Q56P	0.015 ± 0.074
Q56F	-0.071 ± 0.11
Q56L	-0.07 ± 0.057
Q56C	0.008 ± 0.082
Q56D	-0.061 ± 0.093
Q56H	0.041 ± 0.086
Q56K	-0.065 ± 0.096
Q56R	-0.078 ± 0.054
Q56M	-0.037 ± 0.097
Q56V	-0.02 ± 0.06
